Experimental data published in paper PMC6344894.
pKd: −log10 of the molar value. Read-outs that look alike come from different tables or passages of the source.

Columns and labels:
[1] = biological target: YbaK (Escherichia coli) (UniProt P0AAR3); conditions: cited from earlier work
[2] = biological target: YbaK (Escherichia coli) (UniProt P0AAR3); conditions: cited from earlier work; remark: listed apart in the source
[3] = tested on: ProXp-ala (Caulobacter crescentus); assay: native MS competition; conditions: equimolar three-tRNA mix, 0.33 uM each; 5 uM protein; 1 mM Mg(OAc)2; unmodified transcript; AUC: 50 mM HEPES pH 6.8, 30 mM KCl, 1 mM MgCl2, 20 C; native MS: 200 mM ammonium acetate pH 7.5 (1 mM Mg(OAc)2 stated for ProXp-ala/YbaK competition); scale: ratio of complex tRNAPro:tRNACys:tRNAAla

Substance	pKd [1]	pKd [2]	binding signal [3]
ProRS (from UniProt P16659)	6.26	7.35	–
tRNAAla G35A	–	–	1
tRNACys	–	–	1
tRNAPro	–	–	4
